Results on four molecules are retold here after publication PMC10995192 (Nature Communications, 2024).

A value given as a limit tells only on which side of the number the result lay.

As a reminder, the Kd is the constant that tells how readily two partners part at equilibrium. As usually defined, the koff is a measure of how fast the partners let go of each other. The term kon denotes a measure of how fast the partners come together.

Assay [1] has as its target SNS-101, fully human monoclonal IgG1 kappa antibody against VISTA (human). Description: SPR; SNS-101 captured on IgG capture chip, VISTA-His as analyte (0-240 nM), 25 C, PBS 0.05% Tween 20, pH 6.8; 1:1 Langmuir MTL fit. On the technique in general: SPR reads the build-up and loss of mass on a sensor chip optically.
For assay [2] the target is unchanged. Description: SPR; SNS-101 captured on IgG capture chip, VISTA-His as analyte (0-480 nM), 25 C, PBS 0.05% Tween 20, pH 7.4; 1:1 Langmuir MTL fit.
Assay [3] shares this target. Put plainly: SPR; SNS-101 captured on IgG capture chip, VISTA-His as analyte (0-30 nM), 25 C, PBS 0.05% Tween 20, pH 6.0; 1:1 Langmuir MTL fit.
For assay [4] the target is unchanged. Put plainly: SPR; SNS-101 captured on IgG capture chip, VISTA-His as analyte (0-240 nM), 25 C, PBS 0.05% Tween 20, pH 6.6; 1:1 Langmuir MTL fit.
Assay [5] shares this target. Description: SPR; SNS-101 captured on IgG capture chip, VISTA-His as analyte (0-240 nM), 25 C, PBS 0.05% Tween 20, pH 6.4; 1:1 Langmuir MTL fit.
Assay [6] has the same target. Put plainly: SPR; SNS-101 captured on IgG capture chip, VISTA-His as analyte (0-480 nM), 25 C, PBS 0.05% Tween 20, pH 7.2; 1:1 Langmuir MTL fit.
Assay [7] shares this target. Description: SPR; SNS-101 captured on IgG capture chip, VISTA-His as analyte (0-30 nM), 25 C, PBS 0.05% Tween 20, pH 6.2; 1:1 Langmuir MTL fit.
Assay [8] shares this target. Description: SPR; SNS-101 captured on IgG capture chip, VISTA-His as analyte (0-30 nM), 25 C, PBS 0.05% Tween 20, pH 5.8; 1:1 Langmuir MTL fit.
The target is the same in assay [9]. Put plainly: SPR; SNS-101 captured on IgG capture chip, VISTA-His as analyte (0-480 nM), 25 C, PBS 0.05% Tween 20, pH 7.0; 1:1 Langmuir MTL fit.
The target in assay [10] is SNS-101, fully human monoclonal IgG1 kappa anti-VISTA antibody (human). Put plainly: SPR; SNS-101 captured on IgG capture chip, VISTA-His (0-480 nM) as analyte; pH 7.0, PBS + 0.05% Tween 20, 25 °C; 1:1 Langmuir MTL fit; pH series.
Assay [11] shares this target. Put plainly: SPR; SNS-101 captured on IgG capture chip, VISTA-His (0-240 nM) as analyte; pH 6.6, PBS + 0.05% Tween 20, 25 °C; 1:1 Langmuir MTL fit; pH series.
Assay [12] shares this target. Put plainly: SPR; SNS-101 captured on IgG capture chip, VISTA-His (0-30 nM) as analyte; pH 6.0, PBS + 0.05% Tween 20, 25 °C; 1:1 Langmuir MTL fit; pH series.
For assay [13] the target is unchanged. Put plainly: SPR; SNS-101 captured on IgG capture chip, VISTA-His (0-480 nM) as analyte; pH 7.2, PBS + 0.05% Tween 20, 25 °C; 1:1 Langmuir MTL fit; pH series.
Assay [14] concerns the target PSGL-1-19mer-Fc (19 N-terminal residues of human PSGL-1 fused to human IgG1-Fc) (human) (UniProt Q14242). Put plainly: SPR; PSGL-1-19mer-Fc captured on IgG capture chip, VISTA-His (0-960 nM) as analyte; pH 6.0, PBS + 0.05% Tween-20; KD from equilibrium analysis.
The target in assay [15] is SNS-101, fully human monoclonal IgG1 kappa anti-VISTA antibody (human). Put plainly: SPR; SNS-101 captured on IgG capture chip, VISTA-His (0-240 nM) as analyte; pH 6.4, PBS + 0.05% Tween 20, 25 °C; 1:1 Langmuir MTL fit; pH series.
Assay [16] shares this target. Put plainly: SPR; SNS-101 captured on IgG capture chip, VISTA-His (0-480 nM) as analyte; pH 7.4, PBS + 0.05% Tween 20, 25 °C; 1:1 Langmuir MTL fit; pH series.
Assay [17] has the same target. Description: SPR; SNS-101 captured on IgG capture chip, VISTA-His (0-240 nM) as analyte; pH 6.8, PBS + 0.05% Tween 20, 25 °C; 1:1 Langmuir MTL fit; pH series.
For assay [18] the target is unchanged. Description: SPR; SNS-101 captured on IgG capture chip, VISTA-His (0-30 nM) as analyte; pH 6.2, PBS + 0.05% Tween 20, 25 °C; 1:1 Langmuir MTL fit; pH series.
Assay [19] shares this target. Put plainly: SPR; panel of VISTA-His variants and wild type as analytes over captured SNS-101; pH 5.8 (PBS, 0.05% Tween-20), 25 °C.
Assay [20] has the same target. Put plainly: SPR; SNS-101 captured on IgG capture chip, VISTA-His (0-30 nM) as analyte; pH 5.8, PBS + 0.05% Tween 20, 25 °C; 1:1 Langmuir MTL fit; pH series.
The target in assay [21] is T1, VISTA-His H98A/H100A/H154A/H155A/R159A (human, UniProt Q9H7M9, H98A | H100A | H154A | H155A | R159A).
T1 construct: VISTA, human; probably the extracellular domain; source: Expi293, purified (Ni-NTA)
Description: SPR; panel of VISTA-His variants and wild type as analytes over captured SNS-101; pH 5.8 (PBS, 0.05% Tween-20), 25 °C. To be noted: both partners purified.

In assay [22] the target is T2, C-terminal biotinylated hVISTA-Fc fusion protein (R&D Systems AVI7126-050) (human, UniProt Q9H7M9 33-194, biotin, C-terminal).
T2 construct: VISTA, human; source: bought: R&D Systems AVI7126-050
T2 sequence (looked up): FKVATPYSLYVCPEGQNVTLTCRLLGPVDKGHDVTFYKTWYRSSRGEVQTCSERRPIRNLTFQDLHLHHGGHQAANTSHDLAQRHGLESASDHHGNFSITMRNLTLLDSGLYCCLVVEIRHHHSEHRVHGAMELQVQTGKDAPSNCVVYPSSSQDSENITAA
Description: ELISA; partner proteins coated at 5 µg/ml, biotinylated hVISTA-Fc serially diluted in 1% NFDM in PBS at pH 6.0; HRP-streptavidin. To be noted: both partners purified.

Chain of PSGL-1-19mer-Fc (19 N-terminal residues of human PSGL-1 fused to human IgG1-Fc) (human) (Q14242 42-412): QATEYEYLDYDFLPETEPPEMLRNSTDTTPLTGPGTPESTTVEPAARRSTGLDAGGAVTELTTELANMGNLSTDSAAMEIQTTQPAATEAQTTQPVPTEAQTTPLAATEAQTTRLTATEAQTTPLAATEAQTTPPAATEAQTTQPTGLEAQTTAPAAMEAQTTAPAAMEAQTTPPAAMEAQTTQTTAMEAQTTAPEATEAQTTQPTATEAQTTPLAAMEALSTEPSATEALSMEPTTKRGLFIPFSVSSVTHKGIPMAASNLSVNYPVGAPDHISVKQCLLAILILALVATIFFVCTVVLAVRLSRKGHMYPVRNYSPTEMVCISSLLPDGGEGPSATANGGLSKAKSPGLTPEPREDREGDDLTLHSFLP

“VISTA-His (human VISTA, V-domain immunoglobulin suppressor of T-cell activation, with His tag) (from UniProt Q9H7M9 33-311) (natural protein)”: the Kd turned out to be 40.1 nM in assay [1]; 0.779 nM in [3]; 18.5 nM in assay [4]; 5.96 nM in [5]; 134 nM in assay [6]; 1.78 nM in assay [7]. In addition, the Kd in assay [9] turned out to be 77 nM. Moreover, the koff in assay [1] amounted to 0.00842 s⁻¹; in assay [2] it was 0.0308 s⁻¹; in assay [3] it was 0.00213 s⁻¹; in assay [4], 0.00566 s⁻¹; in assay [5], 0.00321 s⁻¹; in assay [6] it was 0.0147 s⁻¹. The koff in assay [7] came out at 0.00219 s⁻¹; in assay [8] it was 0.00129 s⁻¹; in assay [9], 0.0101 s⁻¹. The on-rate constant (kon) worked out at 210000 M⁻¹ s⁻¹ in assay [1]; 87200 M⁻¹ s⁻¹ in [2]; 2.74e+06 M⁻¹ s⁻¹ in assay [3]; 306000 M⁻¹ s⁻¹ in assay [4]; 539000 M⁻¹ s⁻¹ in assay [5]; 110000 M⁻¹ s⁻¹ in assay [6]. Besides, the kon in assay [7] amounted to 1.23e+06 M⁻¹ s⁻¹; in assay [8], 3.68e+06 M⁻¹ s⁻¹; in assay [9], 131000 M⁻¹ s⁻¹.
For the molecule “VISTA-His (wild-type human VISTA) (from UniProt Q9H7M9 33-311) (natural protein)”, the Kd in [10] came out at 77 nM; in [11], 18.5 nM; in assay [12], 0.779 nM; in assay [13] it was 134 nM; in assay [14], 600 nM; in assay [15] it was 5.96 nM. For the same molecule, the Kd in [17] was 40.1 nM; in assay [18], 1.78 nM; in assay [19] it was 0.7 nM. In addition, the koff in [10] worked out at 0.0101 s⁻¹; in [11] it was 0.00566 s⁻¹; in assay [12], 0.00213 s⁻¹; in assay [13], 0.0147 s⁻¹; in [15], 0.00321 s⁻¹; in assay [16] it was 0.0308 s⁻¹. In addition, the koff was 0.00842 s⁻¹ in assay [17], 0.00219 s⁻¹ in assay [18], 0.0022 s⁻¹ in assay [19] and 0.00129 s⁻¹ in [20]. Further, the kon stood at 131000 M⁻¹ s⁻¹ in [10]; 306000 M⁻¹ s⁻¹ in [11]; 2.74e+06 M⁻¹ s⁻¹ in [12]; 110000 M⁻¹ s⁻¹ in assay [13]; 539000 M⁻¹ s⁻¹ in assay [15]; 87200 M⁻¹ s⁻¹ in assay [16]. The kon in [17] was 210000 M⁻¹ s⁻¹; in assay [18] it was 1.23e+06 M⁻¹ s⁻¹; in [19], 3.2e+06 M⁻¹ s⁻¹; in [20] it was 3.68e+06 M⁻¹ s⁻¹.

B1: SNS-101, fully human monoclonal IgG1 kappa anti-VISTA antibody (antibody, V domains shown)
VH: EVQLVESGGGLVQPGGSLRLSCAASGFTFDDYSMNWVRQAPGKGLEWVSYISSDADTIYYADSVKGRFTISRDNAKNSLYLQMNSLRAEDTAVYYCAREAGGVLGRVDFQHWGQGTLVTVSS
VL: DIQLTQSPSSLSASVGDRVTITCQASQDISNYLNWYQQKPGKAPKLLIYDASNLGTGVPSRFSGSGSGTDFTFTISSLQPEDIATYYCQQADFVPPWTFGGGTKVEIK
notes: the Fab part is in PDB 8TBQ; human IgG1 heavy chain; the light chain is in PDB 8TBQ; human kappa light chain; IgG1 kappa; captured on an IgG capture sensor chip in SPR; source: ExpiCHO, transient transfection, purified (Protein A)
Regarding B1, the Kd in assay [21] was > 960 nM.

B2: hSyndecan-2 (R&D Systems 2965-SD) (natural protein, human, UniProt P34741 19-144, looked up)
chain: ESRAELTSDKDMYLDNSSIEEASGVYPIDDDDYASASGSGADEDVESPELTTSRPLPKILLTSAAPKVETTTLNIQNKIPAQTKSPEETDKEKVHLSDSERKMDPAEEDTNVYTEKHSDSLFKRTE
notes: Syndecan-2, human; source: bought: R&D Systems 2965-SD
Take B2: in assay [22], the binding result is listed as “binds”.
